Experimental data as given in US20180171001A1.

Legend:
[1] = target: Tro11 (Human immunodeficiency virus 1)
[2] = target: Env of HIV-1 strain YU2.DG (HIV-1)
[3] = target: SC4226618 (Human immunodeficiency virus 1)

chimeric IgG: 8ANC195 HC paired with the LC from 3BNC117 (antibody)
IC50 (fold change over 8ANC195 IgG), pseudovirus neutralization [panel B] [1]: 17 fold | IC50 (fold change over 8ANC195 IgG), pseudovirus neutralization [panel B] [2]: 12 fold | IC50 (fold change over 8ANC195 IgG), pseudovirus neutralization [panel B] [3]: 32 fold
